Target: mouse importin α1 lacking the N-terminal importin-β-binding domain (ΔIBB-importin α1) (mouse)
Experiment: ITC

Substance: influenza NLS2-K peptide (198-[…]-216)
- Kd: 72.4 µM

Source: article PMC5595889
